B1: DYRK1B (parent)
chain: ARKYFERLPGGGWTLRRTKELRKD
B2: TRAF3IP2 (parent)
chain: PGQPLPGASVRGLHPVQKVILNYP

Variants of: B1
Assay: protein stability index of a GFP-peptide fusion (GPS, HEK-293T) (PSI 1-6); higher = more stable
Details: c terminus: a fixed tail appended
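Note: lentivirally expressed fusions sorted by FACS into six bins by GFP to DsRed ratio, PSI derived from sequencing read proportions per bin multiplied by bin number.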

Protein stability index of substitutions, site by site:
Y4: E 3.76; C 3.29; Q 3.34; G 4.37; L 3.14; F 2.91; T 3.14; D 4.48; P 4.82; W 2.2; M 3.21; S 3.37; N 4.17; A 2.7; V 3.44; R 4.29; H 4.07; I 2.87
K3: F 1.98; V 2.69; C 3.24; L 2.48; R 3.9; I 1.92; T 3.55; A 3.79; G 3.51; N 2.5; P 2.96; M 3.12; E 4.13; S 3.55; W 2.6; Q 3.67; Y 2.58; H 3.56
E20: R 3.3; F 3.57; Q 3.26; S 3.34; Y 3.6; V 3.47; H 1.79; G 4.17; I 2.04; W 2.76; C 3.69; N 3.14; L 3.23; K 2.89; M 3.38; T 3.27; A 4.5; D 3.65
K19: P 3.97; S 3.82; F 3.01; Y 3.25; D 4.88; H 3.08; M 2.73; T 3.41; I 2.87; W 2.35
R17: I 2.03; W 2.35; L 2.43; Q 2.83; F 2.58; S 3.35; E 3.46; H 3.2; N 3.22; G 3.6; K 2.69; Y 3.02; V 2.07; M 2.38; C 2.84; P 2.75; D 3.54
T18: P 3.57; L 1.73; R 3.72; V 3.69; D 4.05; I 3.93; Y 2.26; M 3.88
G10: S 3.19; Y 2.35; A 2.93; V 3.45; D 4.16; F 2.63; R 3.75; W 2.97; N 4.09; M 3.27; I 2.38; T 3.19
R22: F 3.59; N 3.97; K 3.36; A 4.14; Q 3.9; E 4.04; P 3.48; G 4.3; L 2.59; M 3.88; H 3.5
F5: Y 4.08; S 4.35; V 3.98; A 3.86; R 3.58; D 3.84; E 4.26; L 3.83; M 2.98; K 4.25; H 3.82; N 4.02; G 3.63; Q 3.71; I 2.91
R16: H 2.44; M 1.97; S 3.17; V 4.2; L 2.79; F 1.69; Y 1.45; T 3.5; P 3.73; I 2.99; K 3.48; G 3.66
W13: F 3.47; P 4.18; N 3.95; C 4.61; I 3.31; H 2.52; G 5.15; A 3.72; T 3.36; K 3.77; V 3.07; D 3.59; L 3.54; R 3.3; E 4.05; M 3.54
R7: K 3.52; P 3.94; H 3.08; T 2.99; V 3.33; D 3.21; I 2.64; Q 4.13; W 2.81; A 3.3; N 2.83; M 3.67; G 2.84; L 2.77; S 3.23; Y 3.25; E 4.31; F 2.41; C 2.88
L15: C 3.29; H 3.85; M 3.25; R 3.34; I 3.22; T 3.35; P 2.7; A 3.78; D 2.88; Y 3.73; K 3.15; Q 3.65; N 2.95; V 4.02
E6: D 3.69; W 2.67; P 3.39; V 3.35; H 3.34; C 3.85; T 3.78; A 4.08; F 3.37; L 2.64; N 3.07; I 3.38; S 3.21; Q 2.55; R 4.86; K 2.78; M 2.36; Y 3.62
L8: P 3.85; Y 4.07; C 3.18; M 3.47; N 3.4; F 2.57; R 3.25; Q 3.38; V 3.84; H 3.32; S 5.45; W 2.13; T 4.18; I 3.5; D 4.19; E 3.71
A1: S 3.9; D 4.11; K 4.13; R 3.19; G 3.78; M 2.84; E 3.96; L 2.36; N 3.69; T 3.31; F 2.44; H 3.66; I 2.47; Q 3.7; V 3.19; Y 2.27; P 2.89
G11: Q 3.34; P 2.74; H 2.4; I 2.79; T 3.46; N 3.17; W 2.82; C 3.26; S 2.49; M 2.78; D 2.93; V 2.48; Y 2.73; L 3.11; F 2.89; K 2.06
G12: E 3.02; N 2; M 2.95; A 3.06; L 2.57; I 2.03; S 3.11; D 4.15; P 2.96; H 3.85; F 2.93; K 3.81; V 2.15; Q 2.95; Y 2.42; T 2.98
R2: E 4.64; G 3.74; M 2.79; H 2.73; N 3.55; F 3.89; W 2.38; Y 3.85; K 4.25; L 2.96; S 4.28; D 4.1; P 4.56; A 3.77; C 3.03; I 2.83; Q 3.33; T 3.52
T14: P 2.52; R 2.33; Q 2.9; V 2.91; W 2.72; K 3.34; Y 3.01; S 3.34; F 2.36
L21: P 3.26; G 3.95; I 3.44; V 3.7; C 4.41; H 3.95; S 4.45; Q 3.88; K 3.73; E 4.62; W 3.76
P9: Q 3.67; W 2.11; E 3.41; V 2.96; H 2.48; F 1.87; C 1.91; T 3.02; R 3.22; Y 1.9; A 2.83; D 4.24; K 2.5; N 1.97; I 2.13; L 2.43

Variants of: B2
Assay: as above
Details: c terminus: a fixed tail appended

Protein stability index, by site and new letter:
P24: W 2.72; V 1.93; Q 3.11; M 1.22; Y 1.79; N 3.5; T 2.71; S 2.7; R 2.65

From the supplement of paper PMC10567573
